Target: T1, HiLyte Fluor 488-labeled Aβ42 oligomers (human, UniProt P05067 672-713, HiLyte Fluor 488 label (position not given))
T1 construct: amyloid beta peptide 1-42 (Aβ42), human; cut product of the amyloid precursor protein; Oligomeric species of the 6 h aggregation mixture, told apart from monomers by photobleaching; also called oligomeric Aβ; Aβ oligomers; source: bought: AnaSpec; aggregated at 0.5 μM in PBS pH 7.4 for 6 h in a shaking incubator
Assay: single-molecule TIRF two-color coincidence detection; HiLyte Fluor 488 Aβ aggregated 6 h (0.5 μM, PBS pH 7.4), dye-labeled sTREM2 added and imaged; monomers and oligomers told apart by photobleaching; chance coincidence subtracted
Conditions: both partners purified

B1: dye-labeled wild-type sTREM2 (TREM2 ectodomain) for TIRF imaging (domain or fragment, human, UniProt Q9NZC2 19-143, looked up)
chain: HNTTVFQGVAGQSLQVSCPYDSMKHWGRRKAWCRQLGEKGPCQRVVSTHNLWLLSFLRRWNGSTAITDDTLGGTLTITLRNLQPHDAGLYQCQSLHGSEADTLRKVLVEVLADPLDHRDAGDLWF
modifications: TAMRA dye (results) or AF647 (methods), position not stated
notes: TREM2, human, residues 19-143 (soluble ectodomain); also called TAMRA-dye labeled sTREM2; AF647-TREM2; source: Freestyle 293-F, transfected (pHLSec), purified from conditioned medium (IMAC, gel filtration); dye-labeled
B1: binds.

From publication PMC8113883, “Wild-type sTREM2 blocks Aβ aggregation and neurotoxicity, but the Alzheimer's R47H mutant increases Aβ aggregation” (The Journal of Biological Chemistry, 2021)
